Test results reported in patent US20100076177A1 (published 2010).

T1: hDC-SIGN (human, UniProt Q9NNX6 60-404)
T1 chain: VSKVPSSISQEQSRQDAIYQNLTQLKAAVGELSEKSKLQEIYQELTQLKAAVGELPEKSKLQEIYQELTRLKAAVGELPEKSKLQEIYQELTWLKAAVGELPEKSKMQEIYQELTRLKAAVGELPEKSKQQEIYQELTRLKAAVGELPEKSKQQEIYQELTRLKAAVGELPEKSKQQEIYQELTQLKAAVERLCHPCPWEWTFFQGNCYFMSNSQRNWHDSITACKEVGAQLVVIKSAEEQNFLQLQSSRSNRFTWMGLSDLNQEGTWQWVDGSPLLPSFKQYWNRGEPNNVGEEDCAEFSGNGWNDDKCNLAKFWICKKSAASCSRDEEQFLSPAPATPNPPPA

B1: murine monoclonal antibody directed to human mannose binding lectin (the "initial antibody" of Example 1) (antibody, V domains shown)
VH: VQLQESGPGLVKPSQSLSLTCTVTGYSITSDYAWNWIRQFPGNKLEWMGYISYSGSTSYNPSLKSRVSITRDTSKNQFFLQLNSVTTEDTATYYCARWESWFAYWGQGTLVTVSA
VL: DIVLTQSPATLSVTPGDSVSLSCRASQSISNDLHWYQQKSHESPRLLIKYASQSISGIPSRFSGSGSGTDFTLSINSVETEDFGMYFCQQSNSWPYTFGGGTKLEIK
B2: AZN-D1, murine monoclonal antibody directed to h-DC-SIGN (the "initial antibody" of Example 2) (antibody, V domains shown)
VH: QVQLQQSGPQSVRPGASVKISCKASGYSFTSYWMGWVKQRPGQGLEWIGMIDPFDSESRLNQEFKDKATLTVDKSSSTVYMQLSSPTSEDSAIYYCVRRNGGYYVFDSWGQGTTLTVSS
VL: DVLMTQSPLSLPVSLGDKASISCRSSQNIVHSNGDTYLEWYLQRPGQSPKLLIFKVSNRFSGVPDRFSGSGSGTDFILKISRVEAEDLGVYYCFQGSHVPWTFGGGTKLEIK

Tests used:
[1] = biological target: mannan-binding lectin (MBL) (human, UniProt P11226 21-248); experiment: BIAcore 3000
hDC-SIGN = biological target: T1, hDC-SIGN; experiment: BIAcore 3000

Sequence of mannan-binding lectin (MBL) (P11226 21-248): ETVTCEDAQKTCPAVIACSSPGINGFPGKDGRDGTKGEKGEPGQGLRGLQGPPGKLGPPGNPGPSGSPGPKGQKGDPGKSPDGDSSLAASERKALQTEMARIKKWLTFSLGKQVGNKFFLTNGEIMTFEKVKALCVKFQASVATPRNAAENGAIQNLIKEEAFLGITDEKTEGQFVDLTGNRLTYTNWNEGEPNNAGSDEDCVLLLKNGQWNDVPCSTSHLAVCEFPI

Row | Binder | Kd [1] | Kd (hDC-SIGN)
1 | B1 | 1.24 nM | –
2 | B2 | – | 3.88 nM
